# Test results: IntAct's records for PubMed 33368531
# B1: Centriole and centriolar satellite protein OFD1 (Homo sapiens), O75665 (parent)
# chain: MMAQSNMFTVADVLSQDELRKKLYQTFKDRGILDTLKTQLRNQLIHELMHPVLSGELQPRSISVEGSSLLIGASNSLVADHLQRCGYEYSLSVFFPESGLAKEKVFTMQDLLQLIKINPTSSLYKSLVSGSDKENQKGFLMHFLKELAEYHQAKESCNMETQTSSTFNRDSLAEKLQLIDDQFADAYPQRIKFESLEIKLNEYKREIEEQLRAEMCQKLKFFKDTEIAKIKMEAKKKYEKELTMFQNDFEKACQAKSEALVLREKSTLERIHKHQEIETKEIYAQRQLLLKDMDLLRGREAELKQRVEAFELNQKLQEEKHKSITEALRRQEQNIKSFEETYDRKLKNELLKYQLELKDDYIIRTNRLIEDERKNKEKAVHLQEELIAINSKKEELNQSVNRVKELELELESVKAQSLAITKQNHMLNEKVKEMSDYSLLKEEKLELLAQNKLLKQQLEESRNENLRLLNRLAQPAPELAVFQKELRKAEKAIVVEHEEFESCRQALHKQLQDEIEHSAQLKAQILGYKASVKSLTTQVADLKLQLKQTQTALENEVYCNPKQSVIDRSVNGLINGNVVPCNGEISGDFLNNPFKQENVLARMVASRITNYPTAWVEGSSPDSDLEFVANTKARVKELQQEAERLEKAFRSYHRRVIKNSAKSPLAAKSPPSLHLLEAFKNITSSSPERHIFGEDRVVSEQPQVGTLEERNDVVEALTGSAASRLRGGTSSRRLSSTPLPKAKRSLESEMYLEGLGRSHIASPSPCPDRMPLPSPTESRHSLSIPPVSSPPEQKVGLYRRQTELQDKSEFSDVDKLAFKDNEEFESSFESAGNMPRQLEMGGLSPAGDMSHVDAAAAAVPLSYQHPSVDQKQIEEQKEEEKIREQQVKERRQREERRQSNLQEVLERERRELEKLYQERKMIEESLKIKIKKELEMENELEMSNQEIKDKSAHSENPLEKYMKIIQQEQDQESADKSSKKMVQEGSLVDTLQSSDKVESLTGFSHEELDDSW
# Variants of: B1
# Conditions: with gbrap_human GABARAP
row,Variant,effect of a mutation on the interaction
1,Y961A;I964A,disrupting interaction

# Variants of: B1
# Conditions: with mlp3b_human MAP1LC3B
row,Variant,effect of a mutation on the interaction
1,Y961A;I964A,disrupting interaction

# Variants of: B1
# Conditions: with gbrap_human GABARAP
# Remark: another data set of the same source
row,Variant,effect of a mutation on the interaction
1,Y961A;I964A,disrupting interaction
